Test results from paper PMC3744876.
Read-outs that look alike come from different tables or passages of the source.

T1: RIG-I CTD H847A/K858A (human, UniProt O95786 792-925, H847A;K858A)
T1 sequence: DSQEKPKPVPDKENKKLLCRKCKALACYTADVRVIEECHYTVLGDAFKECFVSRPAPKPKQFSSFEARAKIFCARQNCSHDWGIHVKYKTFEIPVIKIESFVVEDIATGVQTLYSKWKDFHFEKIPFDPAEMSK

T2: RIG-I CTD H847A (human, UniProt O95786 792-925, H847A)
T2 sequence: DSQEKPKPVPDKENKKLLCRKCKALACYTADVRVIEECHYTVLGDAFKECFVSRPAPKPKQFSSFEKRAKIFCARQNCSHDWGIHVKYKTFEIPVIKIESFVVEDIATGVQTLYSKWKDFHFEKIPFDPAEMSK

T3: RIG-I CTD (human, UniProt O95786 792-925)
T3 sequence: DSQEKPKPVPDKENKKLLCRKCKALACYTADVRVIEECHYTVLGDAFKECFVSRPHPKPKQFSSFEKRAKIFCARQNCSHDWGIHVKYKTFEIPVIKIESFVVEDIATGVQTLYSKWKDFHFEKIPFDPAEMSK


What was measured:
RIG-I CTD H847A/K858A = target: T1, RIG-I CTD H847A/K858A; assay: ITC
RIG-I CTD H847A [1] = target: T2, RIG-I CTD H847A; assay: ITC
RIG-I CTD [2] = target: T3, RIG-I CTD; assay: ITC
RIG-I CTD [3] = target: T3, RIG-I CTD; assay: ITC; remark: listed apart in the source
RIG-I CTD H847A [4] = target: T2, RIG-I CTD H847A; assay: EMSA

Binder	Kd (RIG-I CTD H847A/K858A) [nM]	Kd (RIG-I CTD H847A [1]) [nM]	Kd (RIG-I CTD [2]) [nM]	Kd (RIG-I CTD [3]) [nM]	binding signal (RIG-I CTD H847A [4]) [fold weaker than WT]
5'-ppp-dsRNA 12-mer (dsRNA, 5'-triphosphate on both strands) RNA 1: GACGCUAGCGUC RNA 2: GACGCUAGCGUC	649	162	29.2	215	
5'-ppp-dsRNA 12-mer, 32pCp-labelled (dsRNA, 5'-triphosphate; labelled strand (ppp-11-mer S1 + pCp) carries an additional 3'-phosphate) RNA 1: GACGCUAGCGUC RNA 2: GACGCUAGCGUC					~10
